The values below come from patent US20040132067, “Systematic evolution of ligands by exponential enrichment: photoselection of nucleic acid ligands and solution selex” (SOMALOGIC, INC., published 2004).

Data set [1] deals with T1, HIV-1 Rev (Human immunodeficiency virus 1, UniProt P04618 P04618:1-116). Nature of the data set: photocrosslinking 325 nm, 4 min, 500 nM protein, 20 ug tRNA, 37 C. The text has this: The sequences are aligned for maximum homology to the 6a sequence (SEQ ID NO:5). Underlines represent potential base pairing as indicted by computer RNA folding algorithms. Dashed underlines represent the 6a ligand “bubble” motif. Sequences flanked by underline represent either loop or bulge regions. Dashes are placed to maximize alignment with 6a. * denotes that two isolates were obtained. +indicates laser independent crosslinking and—denotes the lack of laser independent crosslinking to HIV-1 Rev. […] FIGS. 18 and 19 show the sequence of Trunc2 (SEQ ID NO:58) and Trunc24 (SEQ-ID NO:59) and the specificity results. 500 nM protein, 20 μg tRNA, and approximately 1 nM of kinased trunc2 RNA were incubated for 10 min. at 37° C. and irradiated for 4 min at 325 nm. t2-trunc2 RNA irradiated without added protein; t2Rev1/O′-trunc2 RNA, HIV-1 Rev protein and 0 min. of irradiation; t2/Rev1/4′-trunc2 RNA, HIV-1 Rev protein, adn 4 min. of irradiation; t2/Rev1/4′/PK-trunc2 RNA, HIV-1 Rev protein, 4 min. or irradiation, and proteinase K treated as in FIG. 1; t2/Rev2/4′-trunc2 RNA, HIV-2 Rev protein, and 4 min. of irradiation; t2/Tat/4′-trunc2 RNA, HIV-1 Tat protein, and 4 min. of irradiation. R-free RNA; XL-crosslinked nucleoprotein complex.
T1 sequence (P04618 whole entry, one chain of several): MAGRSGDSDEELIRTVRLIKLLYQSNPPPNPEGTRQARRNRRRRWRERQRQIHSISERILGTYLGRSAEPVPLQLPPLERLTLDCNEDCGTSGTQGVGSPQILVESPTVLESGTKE

Data set [2] concerns the target T1, HIV-1 Rev. Briefly: photo-independent crosslinking seen at 50 nM Rev in 1:100 weight ratio with human nuclear extract. The method, then: Trunc24 (SEQ ID NO:59) photo-independent crosslinking with HIV-1 Rev in the presence of human nuclear extracts was determined as follows: Trunc24 RNA, nuclear extracts, and Rev protein were combined and incubated on ice for 10 min. Samples were mixed 1:1 with 8 M urea loading buffer and placed on a 7 M urea, 8% polyacrylamide gel for analysis, XL indicates the nucleoprotein complex, RNA indicates free trunc24 RNA.

B1: trunc2 (ssRNA)
RNA: GGGUGUAUGAAACACCACGUGUGUUUCCACUC
modifications: 5-iodouracil at all U
With B1, the binding result with HIV-1 Rev [1] is “binds”.

B2: trunc24 (ssRNA)
RNA: GGGGAUUAACAGGCACACCUGUUAACCCU
B2: the binding result with HIV-1 Rev [2] is listed as “binds”.
